# From US20190338269
# T1: Opti-HEK-VKOR-IIa (FX-IIa with the factor X signal peptide and factor X propeptide variant, co-expressed with human VKOR in HEK, aptamer-purified)
# T1 chain 1: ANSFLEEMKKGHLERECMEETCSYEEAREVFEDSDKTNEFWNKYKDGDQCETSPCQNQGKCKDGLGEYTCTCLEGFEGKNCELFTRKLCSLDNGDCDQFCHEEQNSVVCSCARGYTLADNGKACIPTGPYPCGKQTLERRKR
# T1 chain 2: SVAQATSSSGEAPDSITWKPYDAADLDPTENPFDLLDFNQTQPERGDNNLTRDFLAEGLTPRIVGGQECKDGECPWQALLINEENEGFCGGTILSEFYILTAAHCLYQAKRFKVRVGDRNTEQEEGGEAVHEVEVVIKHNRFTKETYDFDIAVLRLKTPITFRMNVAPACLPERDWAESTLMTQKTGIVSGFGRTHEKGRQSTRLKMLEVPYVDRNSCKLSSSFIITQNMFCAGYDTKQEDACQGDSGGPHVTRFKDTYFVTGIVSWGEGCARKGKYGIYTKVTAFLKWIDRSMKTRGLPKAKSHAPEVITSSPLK
# T2: FVIIv1-psFX-IIa-F2 (FX-IIa expressed with the factor X signal peptide and the FVII isoform v1 propeptide, from HEK, aptamer-purified)
# T2 chain 1: T1 chain 1
# T2 chain 2: T1 chain 2
# B1: factor VIIa/tissue factor (TF) complex (protein)
# chain 1: ANAFLEELRPGSLERECKEEQCSFEEAREIFKDAERTKLFWISYSDGDQCASSPCQNGGSCKDQLQSYICFCLPAFEGRNCETHKDDQLICVNENGGCEQYCSDHTGTKRSCRCHEGYSLLADGVSCTPTVEYPCGKIPILEKRNASKPQGRIVGGKVCPKGECPWQVLLLVNGAQLCGGTLINTIWVVSAAHCFDKIKNWRNLIAVLGEHDLSEHDGDEQSRRVAQVIIPSTYVPGTTNHDIALLRLHQPVVLTDHVVPLCLPERTFSERTLAFVRFSLVSGWGQLLDRGATALELMVLNVPRLMTQDCLQQSRKVGDSPNITEYMFCAGYSDGSKDSCKGDSGGPHATHYRGTWYLTGIVSWGQGCATVGHFGVYTRVSQYIEWLQKLMRSEPRPGVLLRAPFP
# chain 2: SGTTNTVAAYNLTWKSTNFKTILEWEPKPVNQVYTVQISTKSGDWKSKCFYTTDTECDLTDEIVKDVKQTYLARVFSYPAGNVESTGSAGEPLYENSPEFTPYLETNLGQPTIQSFEQVGTKVNVTVEDERTLVRRNNTFLSLRDVFGKDLIYTLYYWKSSSSGKKTAKTNTNEFLIDVDKGENYCFSVQAVIPSRTVNRKSTDSPVECMGQEKGEFREIFYIIGAVVFVVIILVIILAISLHKCRKAGVGQSWKENSPLNVS
# Assays:
# [1] = target: T1, Opti-HEK-VKOR-IIa (FX-IIa with the …)
# [2] = target: T2, FVIIv1-psFX-IIa-F2 (FX-IIa expressed …)
protein,measurement,setting,value
B1,"FXa generated after incubation with FVIIa/TF (rate of hydrolysis of PNAPEP substrate), percent of the plasma FXa control",[1],27% activated relative to the FXa for Opti-HEK-VKOR-IIa
same,"FXa generated after incubation with FVIIa/TF (rate of hydrolysis of PNAPEP substrate), percent of the plasma FXa control",[2],36% activated relative to the FXa for FVIIv1-psFX-IIa-F2
same,"activity after FVIIa/TF activation, percent of that of the molecule containing the wild-type propeptide (Opti-HEK-VKOR-IIa)",[2],an activity of 142% of that of the molecule containing the wild-type propeptide
